Data published in article PMC4482781 (Nature neuroscience, 2015).

What was measured:
[1] = tested on: primary human brain endothelial cells (BEC); assay: Colocalization of Aβ–LRP1 complex with PICALM by immunostaining in BEC; assay type: cell-based; conditions: 250 nM, 30 s
[2] = tested on: AD–derived endothelial monolayers; assay: Aβ transcytosis across AD–derived endothelial monolayers; assay type: in vitro ADME, human; conditions: Aβ40 (1 nM) per Fig. 8b

| Substance | colocalized Aβ–LRP1/PICALM puncta [1] | Aβ transport improved by co–transfer of PICALM and LRP1 mini–gene [2] [%] | Aβ transcytosis improved by adenoviral–mediated transfer of PICALM ([2]; compared to GFP control) [%] |
| --- | --- | --- | --- |
| FAM–Aβ42: 6-carboxyfluorescein-labeled Aβ42, Anaspec catalog # 23526 | rapid increase |  |  |
| Aβ: amyloid β–peptide, isoform not named at the place; Aβ40 (1 nM) by legend of Fig. 8 |  | 89 | 63 |
